Source: US20200308267A1 (Boehringer Ingelheim, published 2020)
Residue numbers refer to the chain shown, from its start. Read-outs that look alike come from different tables or passages of the source. Values belong to the binder of their own block, whether it stands above or below them.

Key:
Test in all cases: cell-based or functional assay
[1] = biological target: VEGF
[2] = biological target: VEGF; remark: listed apart in the source
[3] = biological target: VEGF; remark: listed apart in the source

Sequence of VEGF (P15692 whole entry): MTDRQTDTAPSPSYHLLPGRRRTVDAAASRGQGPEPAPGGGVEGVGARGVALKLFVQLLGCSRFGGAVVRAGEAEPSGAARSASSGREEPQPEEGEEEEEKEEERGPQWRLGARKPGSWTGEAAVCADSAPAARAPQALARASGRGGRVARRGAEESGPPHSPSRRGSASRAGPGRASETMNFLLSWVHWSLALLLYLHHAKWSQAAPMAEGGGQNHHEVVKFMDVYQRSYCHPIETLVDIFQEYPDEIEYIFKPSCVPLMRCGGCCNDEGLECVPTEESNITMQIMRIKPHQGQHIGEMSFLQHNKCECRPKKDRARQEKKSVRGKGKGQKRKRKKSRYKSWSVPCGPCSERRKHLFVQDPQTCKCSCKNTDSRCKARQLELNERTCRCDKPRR

B3: VEGFBII022 (VHH, not shown: small tags and cut ends)
chain: EVQLVESGGGLVQTGDSLRLSCEVSGRTFSSYSMGWFRQAQGKEREFVVAISKGGYKYDSVSLEGRFTISKDNAKNTVYLQINSLKPEDTAVYYCASSRAYGSSRLRLADTYEYWGQGTQVTVSSGGGGSGGGSEVQLVESGGGLVQPGGSLRLSCVASGIRFMSMAWYRQAPGKHRELVARISSGGTTAYVDSVKGRFTISRDNSKNTVYLQMNSLKAEDTAVYYCNTFSSRPNPWGAGTQVTVSS
HUVEC Erk phosphorylation, % inhibition [2]: 94% | HUVEC Erk phosphorylation, IC50 [2]: 0.18 nM | HUVEC proliferation, % inhibition [3]: 100% | HUVEC proliferation, IC50 [3]: 0.34 nM

B5: VEGFBII024 (VHH, not shown: small tags and cut ends)
chain: EVQLVESGGGLVQTGDSLRLSCEVSGRTFSSYSMGWFRQAQGKEREFVVAISKGGYKYDSVSLEGRFTISKDNAKNTVYLQINSLKPEDTAVYYCASSRAYGSSRLRLADTYEYWGQGTQVTVSSGGGGSGGGGSGGGGSGGGGSGGGGSGGGGSGGGGSGGGGSEVQLVESGGGLVQAGGSLRLSCTASGSAFKSYRMGWFRRTPGKEDEFVASISWTYGSTFYADSVKGRFTMSRDKAKNAGYLQMNSLKPEDTALYYCAAGAQSDRYNIRSYDYWGQGTQVTVSS
HUVEC Erk phosphorylation, % inhibition [2]: 94% | HUVEC Erk phosphorylation, IC50 [2]: 0.23 nM | HUVEC proliferation, % inhibition [3]: 96% | HUVEC proliferation, IC50 [3]: 0.38 nM

B6: VEGFBII023 (VHH, not shown: small tags and cut ends)
chain: EVQLVESGGGLVQTGDSLRLSCEVSGRTFSSYSMGWFRQAQGKEREFVVAISKGGYKYDSVSLEGRFTISKDNAKNTVYLQINSLKPEDTAVYYCASSRAYGSSRLRLADTYEYWGQGTQVTVSSGGGGSGGGGSGGGGSGGGGSGGGGSGGGGSGGGGSGGGGSEVQLVESGGGLVQAGGSLRLSCAASGRTFSNYAMGWFRQAPGKERVLVADISSSGINTYVADAVKGRFTISRDNAKNTVYLQMNSLKPEDTAVYYCAASAWWYSQMARDNYRYWGQGTQVTVSS
HUVEC Erk phosphorylation, % inhibition [2]: 100% | HUVEC Erk phosphorylation, IC50 [2]: 0.25 nM | HUVEC proliferation, % inhibition [3]: 98% | HUVEC proliferation, IC50 [3]: 0.52 nM

Results, then the binder that gave them:

HUVEC proliferation, % inhibition [1]: 78% | HUVEC proliferation, IC50 [1]: 1.54 nM
B1: VEGFBII037 (VHH)
VHH: DVQLVESGGGLVQPGGSLRLSCAASGRTFSSYSMGWFRQAPGKEREFVVAISKGGYKYDAVSLEGRFTISRDNAKNTVYLQMNSLRPEDTAVYYCASSRAYGSSRLRLADTYEYWGQGTLVTVSS

HUVEC proliferation, % inhibition [1]: 92% | HUVEC proliferation, IC50 [1]: 0.6 nM
B2: VEGFBII038 (VHH)
VHH: B1 VHH with M82I

HUVEC Erk phosphorylation, % inhibition [2]: 99% | HUVEC Erk phosphorylation, IC50 [2]: 0.23 nM | HUVEC proliferation, % inhibition [3]: 104% | HUVEC proliferation, IC50 [3]: 0.41 nM
B4: VEGFBII025 (VHH, not shown: small tags and cut ends)
chain: EVQLVESGGGLVQAGGSLRLSCAASGRTFSNYAMGWFRQAPGKERVLVADISSSGINTYVADAVKGRFTISRDNAKNTVYLQMNSLKPEDTAVYYCAASAWWYSQMARDNYRYWGQGTQVTVSSGGGGSGGGGSGGGGSGGGGSGGGGSGGGGSGGGGSGGGGSEVQLVESGGGLVQTGDSLRLSCEVSGRTFSSYSMGWFRQAQGKEREFVVAISKGGYKYDSVSLEGRFTISKDNAKNTVYLQINSLKPEDTAVYYCASSRAYGSSRLRLADTYEYWGQGTQVTVSS
